Target: P69P4
Experiment: BLI

Kd: 3.88 pM
B1: biotinylated natural Ara h 2 (natural protein)
chain: RQQWELQGDRRCQSQLERANLRPCEQHLMQKIQRDEDSYGRDPYSPSQDPYSPSQDPDRRDPYSPSPYDRRGAGSSQHQERCCNELNEFENNQRCMCEALQQIMENQSDRLQGRQQEQQFKRELRNLPQQCGLRAPQRCDLEVESGGRDRY
modifications: biotin (position not given)

From doi:10.1101/2024.05.08.592267 (2024)
